According to article PMC3517901, “The TSC1-TSC2 complex consists of multiple TSC1 and TSC2 subunits” (BMC Biochemistry, 2012):

B1: TSC2, untagged, full-length (transfected) (natural protein)
chain: not shown
notes: TSC2; also called untagged TSC2; source: HEK 293T, transfected, in lysate; also co-purified with TSC1-TEV-myc on anti-myc beads and released by AcTEV
B2: TSC1-TEV-myc, released from anti-myc beads by AcTEV (natural protein, UniProt Q92574 1-1164, looked up)
chain: MAQQANVGELLAMLDSPMLGVRDDVTAVFKENLNSDRGPMLVNTLVDYYLETSSQPALHILTTLQEPHDKHLLDRINEYVGKAATRLSILSLLGHVIRLQPSWKHKLSQAPLLPSLLKCLKMDTDVVVLTTGVLVLITMLPMIPQSGKQHLLDFFDIFGRLSSWCLKKPGHVAEVYLVHLHASVYALFHRLYGMYPCNFVSFLRSHYSMKENLETFEEVVKPMMEHVRIHPELVTGSKDHELDPRRWKRLETHDVVIECAKISLDPTEASYEDGYSVSHQISARFPHRSADVTTSPYADTQNSYGCATSTPYSTSRLMLLNMPGQLPQTLSSPSTRLITEPPQATLWSPSMVCGMTTPPTSPGNVPPDLSHPYSKVFGTTAGGKGTPLGTPATSPPPAPLCHSDDYVHISLPQATVTPPRKEERMDSARPCLHRQHHLLNDRGSEEPPGSKGSVTLSDLPGFLGDLASEEDSIEKDKEEAAISRELSEITTAEAEPVVPRGGFDSPFYRDSLPGSQRKTHSAASSSQGASVNPEPLHSSLDKLGPDTPKQAFTPIDLPCGSADESPAGDRECQTSLETSIFTPSPCKIPPPTRVGFGSGQPPPYDHLFEVALPKTAHHFVIRKTEELLKKAKGNTEEDGVPSTSPMEVLDRLIQQGADAHSKELNKLPLPSKSVDWTHFGGSPPSDEIRTLRDQLLLLHNQLLYERFKRQQHALRNRRLLRKVIKAAALEEHNAAMKDQLKLQEKDIQMWKVSLQKEQARYNQLQEQRDTMVTKLHSQIRQLQHDREEFYNQSQELQTKLEDCRNMIAELRIELKKANNKVCHTELLLSQVSQKLSNSESVQQQMEFLNRQLLVLGEVNELYLEQLQNKHSDTTKEVEMMKAAYRKELEKNRSHVLQQTQRLDTSQKRILELESHLAKKDHLLLEQKKYLEDVKLQARGQLQAAESRYEAQKRITQVFELEILDLYGRLEKDGLLKKLEEEKAEAAEAAEERLDCCNDGCSDSMVGHNEEASGHNGETKTPRPSSARGSSGSRGGGGSSSSSSELSTPEKPPHQRAGPFSSRWETTMGEASASIPTTVGSLPSSKSFLGMKARELFRNKSESQCDEDGMTSSLSESLKTELGKDLGVEAKIPLNLDGPHPSPPTPDSVGQLHIMDYNETHHEHS
notes: TSC1 with an AcTEV recognition site (ENLYFQG) introduced by site directed mutagenesis before the myc tag; after cleavage part of the site (ENLYFQ) would remain on TSC1; The position of the site is in Additional file 1

What was measured:
[1] = biological target: the molecule itself; assay: SEC; TSC1-TSC2 complex from cotransfected HEK 293T cells, purified on anti-myc affinity beads, released by AcTEV overnight at 4°C, Coomassie gel and Superose 6 gel filtration, fractions immunoblotted
[2] = biological target: B1; assay: as above; settings: both partners purified

Binder	binding result [1]	binding result [2]
B1	binds	–
B2	–	binds
